Measurements published in US20110008340A1 (published 2011).
Where two headings read alike, the source gives them in different places. One block for each binder: values may come before it.

Experiments:
human C3b [1] = target: T1, human C3b (human, UniProt P01024 23-667; P01024 749-1663); assay: inhibition of properdin binding to C3b (ELISA)
[2] = target: Properdin peptide (71-110) …; assay: ELISA saturation binding
human C3b [3] = target: T1, human C3b; assay: inhibition of properdin binding to C3b (ELISA); remark: listed apart in the source

Chain of Properdin peptide (71-110) … (peptide, as listed by the source): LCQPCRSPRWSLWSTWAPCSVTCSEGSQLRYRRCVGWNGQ

IC50 (human C3b [1]): 322 µg/mL
Binder: CRSPRWSLWS [Properdin peptide CRSPRWSLWS (75-84)]

Kd [2]: 161 nM
B1: MoAb^71-110 (antibody, V domains shown)
VH: QVLLQQSAPELARPGASVKMSCTASGYIFTNYPIHWVKQRPGQGLEWIGFIDPGGGYDEPDERFRDRATLTADKSSSTAYMQLSSLTSEDSAIYYCARRGGGYYLDYWGQDTTLTVSA
VL: SIVMTQTPKFLLVSAGDRITITCKASQSVNNDVAWYQQKPGQSPKLLIYYASNRYTGVPDRFTGSGYGTDFTFTITTVKAEDLAVYFCQQDYSSPLTFGAGTKLELK

IC50 (human C3b [3]): 301 µg/mL
Binder: RYRRCVGWNG [Properdin peptide RYRRCVGWNG (99-108)]
